Target: HA-tagged mutant (Leu15) AP2σ2 subunit (human) (human) (UniProt P53680)
Experiment: co-IP

- reduction of the subunit in the HA-AP2σ2 immunoprecipitate against WT cells: > 50%
Substance: AP2α subunit, endogenous in HEK293 cells (from UniProt O95782 1-977) (natural protein)
